One substance from publication PMC3795040 can be followed below.

For the test, the target named is HA70 of BoNT/A (full-length, residues M1–N626) (Clostridium botulinum strain 62A (BoNT/A1-producing)). The test is described as follows: ITC; […] ([…]) […] (400 µM) […]; 23°C; 50 mM Tris pH 7.6, 100 mM NaCl; […]. For orientation: ITC needs no label: the signal is the heat of the interaction.

With “synthetic nLoop peptide of NTNHA (from UniProt Q45914 116-148)”, the Kd was 340 nM and the stoichiometry N (nLoop per HA70 trimer) was determined as 1.

Usually Kd stands for the concentration at which binding is half-saturated. Read a low Kd as a tighter complex.
